Paper PMC3853298, “The Concave Face of Decorin Mediates Reversible Dimerization and Collagen Binding*” (The Journal of Biological Chemistry, 2013)
Changes are numbered by the printed parent chain. Names and notes keep the numbering of the source.

B1: mouse decorin core protein, wild type (residues 45-354) (domain or fragment)
chain: APLALISMCPYRCQCHLRVVQCSDLGLDKVPWDFPPDTTLLDLQNNKITEIKEGAFKNLKDLHTLILVNNKISKISPEAFKPLVKLERLYLSKNQLKELPEKMPRTLQELRVHENEITKLRKSDFNGLNNVLVIELGGNPLKNSGIENGAFQGLKSLSYIRISDTNITAIPQGLPTSLTEVHLDGNKITKVDAPSLKGLINLSKLGLSFNSITVMENGSLANVPHLRELHLDNNKLLRVPAGLAQHKYIQVVYLHNNNISAVGQNDFCRAGHPSRKASYSAVSLYGNPVRYWEIFPNTFRCVYVRSAIQLGNYKAAA
modifications: N-linked glycans (four consensus sites for N-linked glycosylation)
notes: vector-encoded residues left at the N-terminus after cleavage of the BM-40 signal peptide; decorin, mouse, UniProt P28654, residues 45-354; the numbering includes the signal peptide; corresponds to the ordered residues of the bovine decorin core crystal structure; Core protein without the glycosaminoglycan attachment region; exists in a monomer-dimer equilibrium; also called WT; wild-type mouse …
B2: mouse decorin core protein Y51A/R52A/Q54A (residues 45-354) (domain or fragment)
chain: B1 chain with Y11A, R12A, Q14A
modifications: N-linked glycans (four consensus sites for N-linked glycosylation)
notes: vector-encoded residues left at the N-terminus after cleavage of the BM-40 signal peptide; decorin, mouse, UniProt P28654, residues 45-354; the numbering includes the signal peptide; triple mutation in the N-terminal cap; also called Y51A/R52A/Q54 mutant; source: HEK293 c18 cells, episomally transfected (pCEP-Pu), secreted; purified from conditioned medium (HisTrap, Superdex 200); not shown: …
B3: mouse decorin core protein R151E (residues 45-354) (domain or fragment)
chain: B1 chain with R111E
modifications: N-linked glycans (four consensus sites for N-linked glycosylation)
notes: vector-encoded residues left at the N-terminus after cleavage of the BM-40 signal peptide; decorin, mouse, UniProt P28654, residues 45-354; the numbering includes the signal peptide; R151E reverses a charge in LRR5; source: HEK293 c18 cells, episomally transfected (pCEP-Pu), secreted; purified from conditioned medium (HisTrap, Superdex 200); not shown: His6, C-terminal, kept

Biological target: the molecule itself
Test: SEC-MALS; injected at 3 mg/ml (83 uM) onto Superdex 200 10/30, TBS (20 mM Tris, 150 mM NaCl, pH 7.5), 0.2 ml/min; three-detector method for the polypeptide mass

| Protein | stoichiometry N |
| --- | --- |
| B1 | 2 |
| B2 | 2 |
| B3 | 2 |

Biological target: the molecule itself
Test: AUC; sedimentation velocity, 20 °C, 40,000 rpm, PBS, 0.028 (0.77 uM) to 3.4 mg/ml (94 uM); c(s) peaks of monomer and dimer integrated and fitted to a monomer-dimer equilibrium; dimer to monomers

| Protein | Kd |
| --- | --- |
| B1 | 1370 ± 300 nM |
| B2 | 2300 ± 800 nM |
| B3 | 470 ± 90 nM |
